Key:
[1] = biological target: c-Met (hepatocyte growth factor receptor, HGFR), endogenous on tumour cell lines (UniProt P08581); assay: cell-based or functional assay
[2] = biological target: c-Met (hepatocyte growth factor receptor, HGFR), endogenous on tumour cell lines (UniProt P08581); assay: apparent Kd, flow cytometry on H292 cells (endogenous cMet)
[3] = biological target: c-Met (hepatocyte growth factor receptor, HGFR), endogenous on tumour cell lines (UniProt P08581); assay: apparent Kd, flow cytometry on SNU-5 cells (endogenous cMet)

Sequence of c-Met (hepatocyte growth factor receptor, HGFR), endogenous on tumour cell lines (P08581 25-1390 limits assumed): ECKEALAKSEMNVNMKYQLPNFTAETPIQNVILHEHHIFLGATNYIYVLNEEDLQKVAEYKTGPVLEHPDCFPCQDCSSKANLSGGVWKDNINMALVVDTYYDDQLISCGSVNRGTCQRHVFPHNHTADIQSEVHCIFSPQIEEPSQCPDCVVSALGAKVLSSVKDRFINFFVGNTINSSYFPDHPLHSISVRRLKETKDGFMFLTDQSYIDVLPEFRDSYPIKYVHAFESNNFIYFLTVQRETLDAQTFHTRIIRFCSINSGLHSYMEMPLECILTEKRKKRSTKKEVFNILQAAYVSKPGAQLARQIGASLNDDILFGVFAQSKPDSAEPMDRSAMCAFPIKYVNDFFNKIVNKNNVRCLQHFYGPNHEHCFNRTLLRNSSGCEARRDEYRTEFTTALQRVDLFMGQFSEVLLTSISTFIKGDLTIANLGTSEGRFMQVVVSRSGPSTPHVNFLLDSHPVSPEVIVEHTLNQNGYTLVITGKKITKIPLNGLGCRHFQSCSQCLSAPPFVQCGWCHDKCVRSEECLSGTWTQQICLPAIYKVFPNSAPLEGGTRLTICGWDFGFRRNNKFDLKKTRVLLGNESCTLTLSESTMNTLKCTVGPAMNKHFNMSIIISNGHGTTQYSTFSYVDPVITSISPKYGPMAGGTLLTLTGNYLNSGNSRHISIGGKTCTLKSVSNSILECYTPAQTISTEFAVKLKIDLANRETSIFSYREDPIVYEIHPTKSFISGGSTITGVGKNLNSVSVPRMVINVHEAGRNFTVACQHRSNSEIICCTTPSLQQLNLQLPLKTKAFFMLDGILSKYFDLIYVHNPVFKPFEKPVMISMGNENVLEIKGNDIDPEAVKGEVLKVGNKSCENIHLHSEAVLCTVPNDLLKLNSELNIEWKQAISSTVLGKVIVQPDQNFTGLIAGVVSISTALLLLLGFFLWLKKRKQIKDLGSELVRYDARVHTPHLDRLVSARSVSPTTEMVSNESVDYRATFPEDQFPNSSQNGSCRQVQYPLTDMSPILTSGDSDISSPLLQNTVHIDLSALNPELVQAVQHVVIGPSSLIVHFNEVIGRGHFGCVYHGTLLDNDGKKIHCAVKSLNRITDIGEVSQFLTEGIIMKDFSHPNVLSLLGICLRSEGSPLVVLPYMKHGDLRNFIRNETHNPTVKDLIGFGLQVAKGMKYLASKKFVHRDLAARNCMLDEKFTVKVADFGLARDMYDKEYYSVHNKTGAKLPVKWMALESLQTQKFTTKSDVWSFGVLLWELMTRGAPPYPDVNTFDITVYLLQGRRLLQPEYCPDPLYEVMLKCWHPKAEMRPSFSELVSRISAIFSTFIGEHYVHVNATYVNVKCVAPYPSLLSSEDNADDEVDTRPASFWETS

## palivizumab (v22277), unconjugated anti-RSV antibody
[1]
  Mean Object Fluorescence (Internalized), 5 Hours 37° C., EBC-1, 0.3 nM: 2690
  Mean Object Fluorescence (Internalized), 5 Hours 37° C., EBC-1, 1.9 nM: 3050
  Mean Object Fluorescence (Internalized), 5 Hours 37° C., EBC-1, 12 nM: 1990
  Mean Object Fluorescence (Internalized), 5 Hours 37° C., EBC-1, 70 nM: 2600
  Mean Object Fluorescence (Internalized), 5 Hours 37° C., HT-29, 0.3 nM: 2750
  Mean Object Fluorescence (Internalized), 5 Hours 37° C., HT-29, 1.9 nM: 2360
  Mean Object Fluorescence (Internalized), 5 Hours 37° C., HT-29, 12 nM: 2330
  Mean Object Fluorescence (Internalized), 5 Hours 37° C., HT-29, 70 nM: 2290
[2]
  Kd: > 50 nM
[3]
  Kd: > 50 nM

From US20250222128A1, “ANTIBODY DRUG-CONJUGATES TARGETING C-MET AND METHODS OF USE THEREOF” (Zymeworks BC Inc., priority 2022, published 2025)
